What was measured:
Assay in all cases: holdup assay
Parameters in all cases: key: below the threshold = too weak to quantify, mostly under pKd 3.1 to 4
Settings in all cases: plain residues with an end cap or a label only (N-terminal biotin on a linker: ttds)
[1] = molecular target: GIPC3, Q8TF64
[2] = molecular target: T1, RGS12, O14924
T1 sequence (O14924 17-108, limits assumed, looked up): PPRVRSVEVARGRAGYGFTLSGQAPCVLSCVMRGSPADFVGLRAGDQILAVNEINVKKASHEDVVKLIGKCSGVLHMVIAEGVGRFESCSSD

[3] = molecular target: MAGI1_5, Q96QZ7
[4] = molecular target: MAGI3_5, Q5TCQ9
[5] = molecular target: T2, DVL1, O14640
T2 sequence (O14640 246-333, limits assumed, looked up): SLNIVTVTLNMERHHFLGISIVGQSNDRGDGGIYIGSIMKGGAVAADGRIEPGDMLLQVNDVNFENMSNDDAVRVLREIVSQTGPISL

[6] = molecular target: T3, GRIP1_1, Q9Y3R0
T3 sequence (Q9Y3R0 48-146, limits assumed, looked up): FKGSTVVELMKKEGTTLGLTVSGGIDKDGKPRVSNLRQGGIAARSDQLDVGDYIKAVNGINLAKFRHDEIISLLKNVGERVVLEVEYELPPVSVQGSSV

[7] = molecular target: IL16_2, Q14005
[8] = molecular target: DLG5_2, Q8TDM6
[9] = molecular target: T4, USH1C_2, Q9Y6N9
T4 sequence (Q9Y6N9 206-303, limits assumed, looked up): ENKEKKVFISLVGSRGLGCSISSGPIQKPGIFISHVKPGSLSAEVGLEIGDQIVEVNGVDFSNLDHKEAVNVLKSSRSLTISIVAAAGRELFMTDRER

[10] = molecular target: MAGI1_4, Q96QZ7
[11] = molecular target: T5, NHERF3_2, Q5T2W1
T5 sequence (Q5T2W1 129-225, limits assumed, looked up): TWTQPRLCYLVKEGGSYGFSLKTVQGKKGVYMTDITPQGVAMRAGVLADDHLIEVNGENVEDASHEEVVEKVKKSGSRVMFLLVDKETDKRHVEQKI

[12] = molecular target: SCRIB_4, Q14160
[13] = molecular target: T6, SHROOM4, Q9ULL8
T6 sequence (Q9ULL8 5-102, limits assumed, looked up): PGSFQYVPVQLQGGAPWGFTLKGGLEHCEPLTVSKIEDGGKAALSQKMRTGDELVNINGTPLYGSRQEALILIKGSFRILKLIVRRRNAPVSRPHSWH

[14] = molecular target: PDZD9, Q8IXQ8
[15] = molecular target: T7, PDZD11, Q5EBL8
T7 sequence (Q5EBL8 42-139, limits assumed, looked up): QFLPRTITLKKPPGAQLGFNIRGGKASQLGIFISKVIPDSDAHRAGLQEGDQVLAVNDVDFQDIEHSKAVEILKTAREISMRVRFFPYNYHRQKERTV

[16] = molecular target: MAGI3_6, Q5TCQ9
[17] = molecular target: T8, LNX2_4, Q8N448
T8 sequence (Q8N448 595-690, limits assumed, looked up): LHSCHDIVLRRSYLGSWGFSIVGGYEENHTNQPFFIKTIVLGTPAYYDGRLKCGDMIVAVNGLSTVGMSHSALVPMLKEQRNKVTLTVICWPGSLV

[18] = molecular target: T9, PARD6B, Q9BYG5
T9 sequence (Q9BYG5 152-260, limits assumed, looked up): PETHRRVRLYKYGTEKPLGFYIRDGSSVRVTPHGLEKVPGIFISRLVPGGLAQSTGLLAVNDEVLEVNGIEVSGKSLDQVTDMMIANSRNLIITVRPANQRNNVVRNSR

[19] = molecular target: PARD3B_2, Q8TEW8
[20] = molecular target: MAGI1_3, Q96QZ7
[21] = molecular target: MAGI3_4, Q5TCQ9
[22] = molecular target: Inadl_7, Q8NI35
[23] = molecular target: T10, PDZD2_4, O15018
T10 sequence (O15018 723-823, limits assumed, looked up): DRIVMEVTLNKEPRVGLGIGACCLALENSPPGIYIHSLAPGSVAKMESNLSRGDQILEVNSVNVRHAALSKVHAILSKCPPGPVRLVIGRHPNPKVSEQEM

[24] = molecular target: T11, PDZD2_3, O15018
T11 sequence (O15018 581-682, limits assumed, looked up): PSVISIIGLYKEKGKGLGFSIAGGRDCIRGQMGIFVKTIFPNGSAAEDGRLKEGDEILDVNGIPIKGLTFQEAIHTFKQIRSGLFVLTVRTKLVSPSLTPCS

[25] = molecular target: T12, PTPN13_4, Q12923
T12 sequence (Q12923 1783-1878, limits assumed, looked up): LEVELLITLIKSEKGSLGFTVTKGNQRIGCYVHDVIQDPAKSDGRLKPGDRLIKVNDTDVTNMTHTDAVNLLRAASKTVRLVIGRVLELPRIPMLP

Chain of MAGI1_3, Q96QZ7 (Q96QZ7 638-725): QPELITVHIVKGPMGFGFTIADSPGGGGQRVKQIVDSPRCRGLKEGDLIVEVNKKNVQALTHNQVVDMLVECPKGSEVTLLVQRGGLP
Chain of SCRIB_4, Q14160 (Q14160 1095-1204): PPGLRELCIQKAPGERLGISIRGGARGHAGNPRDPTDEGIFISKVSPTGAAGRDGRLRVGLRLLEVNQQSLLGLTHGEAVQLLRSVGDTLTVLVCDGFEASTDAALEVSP
Chain of PDZD9, Q8IXQ8 (Q8IXQ8 23-120): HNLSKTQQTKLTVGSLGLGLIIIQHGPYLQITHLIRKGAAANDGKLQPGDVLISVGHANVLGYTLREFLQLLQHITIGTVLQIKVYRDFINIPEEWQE
Chain of MAGI3_5, Q5TCQ9 (Q5TCQ9 847-941): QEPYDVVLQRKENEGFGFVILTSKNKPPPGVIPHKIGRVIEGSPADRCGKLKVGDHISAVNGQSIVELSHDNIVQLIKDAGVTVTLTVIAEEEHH
Chain of MAGI3_6, Q5TCQ9 (Q5TCQ9 1014-1103): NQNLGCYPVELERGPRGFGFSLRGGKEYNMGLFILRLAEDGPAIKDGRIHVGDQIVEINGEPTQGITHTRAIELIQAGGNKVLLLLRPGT
Chain of MAGI1_5, Q96QZ7 (Q96QZ7 986-1098): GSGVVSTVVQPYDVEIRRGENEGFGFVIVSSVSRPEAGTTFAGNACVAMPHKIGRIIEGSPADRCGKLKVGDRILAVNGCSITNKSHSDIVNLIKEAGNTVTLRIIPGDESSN
Chain of IL16_2, Q14005 (Q14005 350-450): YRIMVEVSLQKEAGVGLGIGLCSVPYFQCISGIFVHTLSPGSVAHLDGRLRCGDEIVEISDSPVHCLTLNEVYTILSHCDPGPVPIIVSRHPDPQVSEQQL
Chain of DLG5_2, Q8TDM6 (Q8TDM6 714-800): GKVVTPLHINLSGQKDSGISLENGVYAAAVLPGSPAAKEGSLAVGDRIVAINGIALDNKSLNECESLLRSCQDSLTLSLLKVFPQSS
Chain of PARD3B_2, Q8TEW8 (Q8TEW8 376-471): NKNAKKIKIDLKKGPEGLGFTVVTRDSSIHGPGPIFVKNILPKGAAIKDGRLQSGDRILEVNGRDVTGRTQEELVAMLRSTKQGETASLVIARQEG
Chain of MAGI1_4, Q96QZ7 (Q96QZ7 other isoform, or with tags, fused parts or gaps): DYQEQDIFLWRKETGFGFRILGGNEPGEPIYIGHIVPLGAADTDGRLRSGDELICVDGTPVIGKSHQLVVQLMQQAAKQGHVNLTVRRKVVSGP
Chain of Inadl_7, Q8NI35 (Q8NI35 1219-1332): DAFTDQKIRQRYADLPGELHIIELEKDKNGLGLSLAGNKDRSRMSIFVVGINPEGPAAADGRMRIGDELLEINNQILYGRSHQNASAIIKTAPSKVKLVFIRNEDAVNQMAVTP
Chain of MAGI3_4, Q5TCQ9 (Q5TCQ9 716-815): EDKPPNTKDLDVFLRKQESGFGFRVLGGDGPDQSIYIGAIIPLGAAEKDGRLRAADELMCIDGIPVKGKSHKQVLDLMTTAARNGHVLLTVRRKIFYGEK
Chain of GIPC3, Q8TF64 (Q8TF64 107-202): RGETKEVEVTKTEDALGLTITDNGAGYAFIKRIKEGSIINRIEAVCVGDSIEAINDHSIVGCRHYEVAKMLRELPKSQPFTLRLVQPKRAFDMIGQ

Row | Binder | pKd [1] | pKd [2] | pKd [3] | pKd [4] | pKd [5] | pKd [6] | pKd [7] | pKd [8] | pKd [9] | pKd [10] | pKd [11] | pKd [12] | pKd [13] | pKd [14] | pKd [15] | pKd [16] | pKd [17] | pKd [18] | pKd [19] | pKd [20] | other results
1 | RLPKIKETTV [FRMPD4, Q14CM0] | below the threshold | 4.61 | 4.5 | below the threshold | 4.63 | below the threshold | below the threshold | 4.7 | below the threshold | below the threshold | below the threshold | 4.85 | below the threshold | below the threshold | below the threshold | below the threshold | below the threshold | below the threshold | below the threshold | 4.82 | pKd [21]: below the threshold; pKd [22]: below the threshold; pKd [23]: below the threshold; pKd [24]: below the threshold; pKd [25]: below the threshold
2 | RLQRRRETQV [HPV18-E6, P06463] | below the threshold | 4.35 | below the threshold | below the threshold | below the threshold | below the threshold | below the threshold | below the threshold | below the threshold | 4.28 | below the threshold | below the threshold | below the threshold | below the threshold | below the threshold | below the threshold | below the threshold | below the threshold | below the threshold | below the threshold | pKd [21]: below the threshold; pKd [22]: below the threshold; pKd [23]: below the threshold; pKd [24]: below the threshold; pKd [25]: 4.03
3 | RPLPRKVSQL [DOCK4, Q8N1I0] | 4.39 | below the threshold | below the threshold | below the threshold | below the threshold | 4.15 | below the threshold | below the threshold | below the threshold | below the threshold | below the threshold | below the threshold | below the threshold | below the threshold | below the threshold | below the threshold | below the threshold | below the threshold | below the threshold | below the threshold | pKd [21]: 4.12; pKd [22]: 4.45; pKd [23]: below the threshold; pKd [24]: below the threshold; pKd [25]: below the threshold
